Measurements as given in patent US20110159022A1, “Immunogenic Peptides Derived from the Midkine Protein, as an Anticancer Vaccine” (priority 2008, published 2011).
Numbering of substitutions follows the chain as printed.

Legend:
HLA-DR3 (DRB1*0301) = HLA-DR3 (DRB1*0301) (Homo sapiens, UniProt P01903+P01911, A100K/A102G/A103R/A169T/F55Y/I96L/K41T/L162R/M171V/P40S/Q125H/Q178H/Q39Y/R42S/S66N/T106N/T262R/W38E/Y61H); experiment: HLA II/peptide competition binding assay, DR3; settings: ratio of IC50 of competitor peptide to IC50 of reference peptide; mean of at least two independent experiments; less than 100 = active
HLA-DR7 (DRB1*0701) = HLA-DR7 (DRB1*0701) (Homo sapiens, UniProt P01903+P01911, A100R/A102G/A103Q/D57E/D86V/E43K/F76Y/K127E/L162R/M171V/P40G/Q125H/Q99D/R33Q/R42Y/R54Q/S133A/S66F/T210M/V115G/Y107V/Y59L/Y89S); experiment: HLA II/peptide competition binding assay, DR7; settings: ratio of IC50 of competitor peptide to IC50 of reference peptide; mean of at least two independent experiments; less than 100 = active
HLA-DR11 (DRB1*1101) = HLA-DR11 (DRB1*1101) (Homo sapiens, UniProt P01903+P01911, A100R/A169T/A87E/I96F/K41T/L162R/M171V/P40S/Q125H/Q178H/Q39Y/Q99D/R42S/S66Y/T262R/V115G/W38E); assay type: binding; settings: ratio of IC50 of competitor peptide to IC50 of reference peptide; mean of at least two independent experiments; less than 100 = active
HLA-DR13 (DRB1*1301) = HLA-DR13 (DRB1*1301) (Homo sapiens, UniProt P01903+P01911, A100E/A169T/K41T/L162R/M171V/P40S/Q125H/Q178H/Q39Y/Q99D/R42S/S66N/T262R/W38E/Y61H); experiment: HLA II/peptide competition binding assay, DR13; settings: ratio of IC50 of competitor peptide to IC50 of reference peptide; mean of at least two independent experiments; less than 100 = active
HLA-DR15 (DRB1*1501) = HLA-DR15 (DRB1*1501) (Homo sapiens, UniProt P01903+P01911); experiment: HLA II/peptide competition binding assay, DR15; settings: ratio of IC50 of competitor peptide to IC50 of reference peptide; mean of at least two independent experiments; less than 100 = active
HLA-DRB3 (DRB3*0101) = HLA-DRB3 (DRB3*0101) (Homo sapiens, UniProt P01903+P79483); experiment: HLA II/peptide competition binding assay, DRB3; settings: ratio of IC50 of competitor peptide to IC50 of reference peptide; mean of at least two independent experiments; less than 100 = active
HLA-DRB4 (DRB4*0101) = HLA-DRB4 (DRB4*0101) (Homo sapiens, UniProt P01903+P13762, G164S); experiment: HLA II/peptide competition binding assay, DRB4; settings: ratio of IC50 of competitor peptide to IC50 of reference peptide; mean of at least two independent experiments; less than 100 = active
HLA-DRB5 (DRB5*0101) = HLA-DRB5 (DRB5*0101) (Homo sapiens, UniProt P01903+Q30154); experiment: HLA II/peptide competition binding assay, DRB5; settings: ratio of IC50 of competitor peptide to IC50 of reference peptide; mean of at least two independent experiments; less than 100 = active
HLA-DP401 (DPB1*0401) = biological target: T1, HLA-DP401 (DPB1*0401) (Homo sapiens, UniProt P04440+P20036); assay type: binding; settings: ratio of IC50 of competitor peptide to IC50 of reference peptide; mean of at least two independent experiments; less than 100 = active
T1 sequence (P04440 30-258): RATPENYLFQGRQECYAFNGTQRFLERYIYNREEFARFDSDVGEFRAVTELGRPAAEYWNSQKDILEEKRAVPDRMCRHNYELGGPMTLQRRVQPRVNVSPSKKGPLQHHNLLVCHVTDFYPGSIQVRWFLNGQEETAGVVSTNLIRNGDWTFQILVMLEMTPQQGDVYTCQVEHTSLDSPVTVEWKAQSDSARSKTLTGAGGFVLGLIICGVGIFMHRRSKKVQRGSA
T1 sequence (P20036 29-260): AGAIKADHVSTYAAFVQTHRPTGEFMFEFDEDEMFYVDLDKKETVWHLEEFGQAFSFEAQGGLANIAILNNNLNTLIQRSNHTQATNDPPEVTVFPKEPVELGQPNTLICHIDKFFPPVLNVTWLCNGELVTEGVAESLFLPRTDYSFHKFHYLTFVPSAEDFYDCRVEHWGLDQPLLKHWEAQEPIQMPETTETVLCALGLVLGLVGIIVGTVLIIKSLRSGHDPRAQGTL

HLA-DP402 (DPB1*0402) = biological target: T2, HLA-DP402 (DPB1*0402) (Homo sapiens, UniProt P04440+P20036, A65V/A84D/A85E/L207M); assay type: binding; settings: ratio of IC50 of competitor peptide to IC50 of reference peptide; mean of at least two independent experiments; less than 100 = active
T2 sequence (P04440 30-258 A65V/A84D/A85E): T1 sequence (P04440 30-258) with A36V, A55D, A56E
T2 sequence (P20036 29-260): T1 sequence (P20036 29-260)

[1] = test system: 12 predominant HLA II molecules; experiment: HLA II/peptide binding assays, count over the panel; set-up: species or system human; settings: relative activity of less than 100 characterizes the active peptides
From the text: The assays for binding to HLA II molecules are competition binding assays with immunoenzymatic visualization, as described in U.S. Pat. No. 6,649,166 and PCT international application WO 03/040299, respectively, for the HLA-DR and HLA-DP4 molecules. The implementation of these assays for measuring the binding activity of peptides derived from various antigens is illustrated in U.S. Pat. No. 6,649,166 and PCT international applications WO 02/090382, WO 03/040299 and WO 2004/014936.
The sensitivity of each test is reflected by the IC50 values observed with the nonbiotinylated peptides which correspond to the tracers. […] The results are expressed in the form of relative activity (ratio of the IC50 of the competitor peptide to that of the reference peptide (nonbiotinylated peptide which corresponds to the tracer)). A relative activity of less than 100 characterizes the active peptides.

HLA-DR1 (DRB1*0101) = HLA-DR1 (DRB1*0101) (Homo sapiens, UniProt P01903+P01911, A100R/D57E/F55L/F60I/F76Y/I96L/L162R/M171V/P40L/Q125E/R42F/V115G/Y59C); assay type: binding; settings: ratio of IC50 of competitor peptide to IC50 of reference peptide; mean of at least two independent experiments; less than 100 = active
HLA-DR4 (DRB1*0401) = HLA-DR4 (DRB1*0401) (Homo sapiens, UniProt P01903+P01911, A100K/A169T/F76Y/I96L/K127E/L162R/M171V/N62H/P40V/Q125Y/R42H/S133A/S149N/S66Y/V115G/V209L/W38E); experiment: HLA II/peptide competition binding assay, DR4; settings: ratio of IC50 of competitor peptide to IC50 of reference peptide; mean of at least two independent experiments; less than 100 = active

| Substance | Relative binding activity, DR3 (HLA-DR3 (DRB1*0301)) | Relative binding activity, DR7 (HLA-DR7 (DRB1*0701)) | Relative binding activity, DR11 (HLA-DR11 (DRB1*1101)) | Relative binding activity, DR13 (HLA-DR13 (DRB1*1301)) | Relative binding activity, DR15 (HLA-DR15 (DRB1*1501)) | Relative binding activity, DRB3 (HLA-DRB3 (DRB3*0101)) | Relative binding activity, DRB4 (HLA-DRB4 (DRB4*0101)) | Relative binding activity, DRB5 (HLA-DRB5 (DRB5*0101)) | Relative binding activity, DP401 (HLA-DP401 (DPB1*0401)) | Relative binding activity, DP402 (HLA-DP402 (DPB1*0402)) | Total (number of the 12 predominant HLA II molecules bound) [1] | Relative binding activity, DR1 (HLA-DR1 (DRB1*0101)) | Relative binding activity, DR4 (HLA-DR4 (DRB1*0401)) |
| --- | --- | --- | --- | --- | --- | --- | --- | --- | --- | --- | --- | --- | --- |
| G T L K K A R Y N A Q C Q E T (GTLKKARYNAQCQET) [MDK 105-119] | >419 | >2 479 | 1 008 | >2 537 | 225 | >485 | >28 868 | >2 100 | >879 | >976 | 1 |  |  |
| E N W G A C D G G T G T K V R (ENWGACDGGTGTKVR) [MDK 89-103] | >419 | >2 479 | >1 086 | >2 537 | >529 | 2 333 | >28 868 | >2 100 | >879 | >976 | 0 | 1 460 | >1 812 |
| C G V G F R E G T C G A Q T Q (CGVGFREGTCGAQTQ) [MDK 52-64] | >419 | >2 479 |  | >2 537 | >529 | >485 | >28 868 | >2 100 | >879 | >976 | 1 |  |  |
| K D K V K K G G P G S E C A E (KDKVKKGGPGSECAE) [MDK 25-39] | >419 | >2 479 | >1 086 | >2 537 | >529 | >485 | >28 868 | >2 100 | >879 | >976 | 0 | 1 251 | >1 812 |
| T S A V A K K K D K V K K G G (TSAVAKKKDKVKKGG) [MDK 18-32] | >419 | >2 479 | >1 086 | 132 | >529 | >485 | >28 868 | >2 100 | >879 | >976 | 0 | >5 291 | >1 812 |
| C R V P C N W K K E F G A D C (CRVPCNWKKEFGADC) [MDK 70-84] | >419 | >2 479 | >1 086 | >2 537 | >529 |  | >28 868 | >2 100 |  | >976 | 2 |  | 1 562 |
| A E W A W G P C T P S S K D C (AEWAWGPCTPSSKDC) [MDK 38-52] | >419 | >2 479 |  | >2 537 | >529 | >485 | >28 868 | >2 100 | >879 |  | 0 | 1 305 | 1 859 |
